The text below walks through data of patent US20260217833A1 (APTEVO RESEARCH AND DEVELOPMENT, published 2026).

The target in one experiment is T1, human CD40 ECD- HAC tag (human).
T1 construct: also called CD4001006; recombinant monomeric human CD40 ectodomain (ECD)
Put plainly: SPR, binder captured on anti-human IgG, monomeric CD40 ECD injected, 1:1 fit. For orientation: In SPR one partner is held on a chip, and binding of the other changes the refractive index at the surface.

Experiment [1] concerns the target T2, human CD40 full-length (human, UniProt P25942 21-277).
T2 construct: Also used for CD40 of Daudi cells, of CD40-expressing HEK293 cells and of the BPS CD40/NFkB HEK293 reporter cells where the row says so; also called CD4001012; CHOK1SV/CD40
As to the kind of experiment: flow cytometry, CHOK1SV/human CD40 cells. In general terms: In flow cytometry, cells or beads pass a laser one at a time.

The next experiment has as its target T3, Human PD-L1 full-length (human, UniProt Q9NZQ7 19-290).
T3 construct: also called PDL01021; CHOK1SV/huPDL1
As to the kind of experiment: flow cytometry, CHOK1SV/human PD-L1 cells.

Experiment [2] deals with T2, human CD40 full-length. Put plainly: flow cytometry, CHOK1SV/human CD40 cells. This is another data set of the same source.
The target in experiment [3] is T2, human CD40 full-length. Put plainly: flow cytometry, CHOK1SV/human CD40 cells. The source holds these as a separate data set.
Target sequence in this assay (P25942 21-277): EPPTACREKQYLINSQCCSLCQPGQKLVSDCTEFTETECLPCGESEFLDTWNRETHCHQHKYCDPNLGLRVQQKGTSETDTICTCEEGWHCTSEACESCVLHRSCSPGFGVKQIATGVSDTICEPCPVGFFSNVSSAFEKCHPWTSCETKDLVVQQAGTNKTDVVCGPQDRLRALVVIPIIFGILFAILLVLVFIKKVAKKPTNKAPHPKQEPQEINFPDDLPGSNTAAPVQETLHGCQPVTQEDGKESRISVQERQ
A further experiment concerns the target T4, Cynomolgus CHOK1SV/CD40.
T4 construct: also called Cyno CD40 full-length; CD4001013
T4 receptor chain: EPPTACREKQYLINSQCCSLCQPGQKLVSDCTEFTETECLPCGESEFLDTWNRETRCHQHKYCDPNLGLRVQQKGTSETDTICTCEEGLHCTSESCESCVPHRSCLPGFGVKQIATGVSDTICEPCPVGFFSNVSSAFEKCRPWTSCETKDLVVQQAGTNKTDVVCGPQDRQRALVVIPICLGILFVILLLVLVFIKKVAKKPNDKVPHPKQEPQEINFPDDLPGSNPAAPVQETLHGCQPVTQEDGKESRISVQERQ
Put plainly: flow cytometry, CHOK1SV/cynomolgus CD40 cells.

For experiment [4], the target named is T2, human CD40 full-length. As to the kind of experiment: flow cytometry, CHOK1SV/human CD40 cells. The source holds these as a separate data set.

Where two headings read alike, the source gives them in different places.

T3 sequence (Q9NZQ7 19-290): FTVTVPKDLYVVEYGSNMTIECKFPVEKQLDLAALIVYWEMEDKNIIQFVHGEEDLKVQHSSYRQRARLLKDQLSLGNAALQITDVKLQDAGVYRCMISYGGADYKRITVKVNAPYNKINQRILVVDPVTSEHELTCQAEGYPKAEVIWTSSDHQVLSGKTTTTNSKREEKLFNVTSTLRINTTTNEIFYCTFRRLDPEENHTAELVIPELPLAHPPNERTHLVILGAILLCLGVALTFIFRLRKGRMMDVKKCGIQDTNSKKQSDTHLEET

B1: CD4001133 (Fc fusion)
VH: EVQLVESGGGLVQPGGSLRLSCAASGFTFSSYAMSWVRQAPGKGLEWVSAISSAGTYIYYADSVKGRFTISRDNSKNTLYLQMNSLRAEDTAVYYCARHGNGYDPLWYFDVWGQGTTVTVSS
VL: DIQMTQSPSSLSASVGDRVTITCRASQSLVHYNGYTYLNWYQQKPGKAPKLLIYKVSNRFSGVPDRFSGSGSGTDFTLTISSLQPEDFATYYCQQTTHVPLTFGQGTKVEIK
notes: Tested as scFv on the N-terminus of a wildtype IgG1 Fc region; also called Humanized 5B9
One may read the Kd as the free concentration of one partner at which half of the binding sites on the other are occupied at equilibrium, for simple one-to-one binding. Low values mean higher affinity, high ones lower affinity. As a reminder, the koff is a measure of how fast the partners let go of each other. Broadly, the kon is a measure of how fast the partners come together. A higher kon goes with faster complex formation. Usually EC50 (read off the curve) stands for the concentration giving half of the maximal effect. Read a high EC50 (read off the curve) as a less potent agent. As for B1, in the experiment with human CD40 ECD- HAC tag, the dissociation constant (Kd) came out at 85 nM, the koff amounted to 0.019 s⁻¹ and the association rate constant (kon) is 230000 M⁻¹ s⁻¹. In the experiment with human CD40 full-length [1], the 50% effective concentration (EC50 (read off the curve)) is about 7 nM.

B2: CD4001048 (bispecific antibody)
scFv-Fc-scFv chain: DVVMTQTPLSLPVSLGDQASISCRSSQSLVHYNGYTYLHWYLQKPGQSPKLLIYKVSNRFSGVPDRFSGSGSGTDFTLKISRVEAEDLGVYFCSQTTHVPLTFGAGTKLELRGGGGSGGGGSGGGGSGGGGSEVMLVESGGGLVKPGGSLKLSCAASGFTFSSYAMSWVRQTPERRLEWVASISSAGTYIYYPDSVKGRFTISRDNAKNILYLQMNSLRSEDTAMYYCARHGNGYDPLWYFDVWGAGTTVTVSSEPKSSDKTHTCPPCPAPPAAAPSVFLFPPKPKDTLMISRTPEVTCVVVDVSHEDPEVKFNWYVDGVEVHNAKTKPREEQYNSTYRVVSVLTVLHQDWLNGKEYKCAVSNKALPAPIEKTISKAKGQPREPQVYTLPPSRDELTKNQVSLTCLVKGFYPSDIAVEWESNGQPENNYKTTPPVLDSDGSFFLYSKLTVDKSRWQQGNVFSCSVMHEALHNHYTQKSLSLSPGGGGSPSEVQLVESGGGLVKPGGSLRLSCAASGFTFSDYGMAWVRQAPGKGLEWVAFITSLAYIIYYADSVKGRFTISRDNAKNSLYLQMNSLRAEDTAVYYCARNYGSSPYYFDYWGQGTLVTVSSGGGGSGGGGSGGGGSGGGGSDIQMTQSPSSLSASVGDRVTITCRASQDINKFLSWYQQKPGKAPKLLIHYTSSLQPGVPSRFSGSGSGTDFTLTISSLQPEDFATYYCLQYDNLYTFGQGTKLEIK
notes: also called CD40_5B9 x hFc x PDL_5F9
Regarding B2, the binding result in the experiment with Human PD-L1 full-length and with human CD40 full-length [2] was “binds” throughout.

B3: CD4001100 (Fc fusion)
chain: DVQMTQSPILLSASVGDRVTITCRSSQSLVHYNGYTYVHWYQQRTNGSPRLLIYKVSNRFSGVPDRFSGSGSGTDFTLTISSLQPEDIADYFCQQTTHVPLTFGAGTKVEIKGGGGSGGGGSGGGGSGGGGSEVQLVESGGGLEQPGGSLRLSCAASGFTFSSYAMSWVRQAPGKGLEWVASISSAGTYIYYADSVKGRFTISRDNSKNTLYLQMNSLRAEDTAVYYCARHGNGYDPLWYFDVWGQGTTVTVSS
notes: As m65; not shown: wildtype IgG1 Fc region
On to B3, for which, in the experiment with human CD40 ECD- HAC tag, binding was characterised by a dissociation constant (Kd) of 21 nM, the koff was 0.006 s⁻¹ and the kon stood at 290000 M⁻¹ s⁻¹. For the same molecule, in the experiment with human CD40 full-length [3], the binding result is given as “binds”.

B4: CD4001132 (Fc fusion)
chain: DVQMTQSPILLSASVGDRVTITCRSSQSLVHYNGYTYVHWYQQKPGKAPKLLIYKVSNLFSGVPSRFSGSGSGTDFTLTISSLQPEDIADYFCQQTTHVPLTFGAGTKVEIKGGGGSGGGGSGGGGSGGGGSEVQLVESGGGLVQPGGSLRLSCAASGFTFSSYAMSWVRQAPGKGLEWVSAISSAGTYIYYADSVKGRFTISRDNSKNTLYLQMNSLRAEDTAVYYCARHGNGYDPLWYFDVWGQGTTVTVSS
notes: as for B3
For the molecule B4, the on-rate constant (kon) with human CD40 ECD- HAC tag came to 240000 M⁻¹ s⁻¹. The half-maximal effective concentration (EC50 (read off the curve)) with human CD40 full-length [1] is about 5 nM.

B5: PC401133 (bispecific antibody)
scFv-Fc-scFv chain: DIQMTQSPSSLSASVGDRVTITCRASQDINKFLSWYQQKPGKAPKLLIHYTSSLQSGVPSRFSGSGSGTDFTLTISSLQPEDFATYYCLQYDNLYTFGQGTKLEIKGGGGSGGGGSGGGGSGGGGSEVQLVESGGGLVQPGGSLRLSCAASGFTFSDYGMAWVRQAPGKGLEWVSFITSLAYIIYYADSVKGRFTISRDNAKNSLYLQMNSLRAEDTAVYYCARNYGSSPYYFDYWGQGTLVTVSSEPKSSDKTHTCPPCPAPPAAAPSVFLFPPKPKDTLMISRTPEVTCVVVDVSHEDPEVKFNWYVDGVEVHNAKTKPREEQYNSTYRVVSVLTVLHQDWLNGKEYKCAVSNKALPAPIEKTISKAKGQPREPQVYTLPPSRDELTKNQVSLTCLVKGFYPSDIAVEWESNGQPENNYKTTPPVLDSDGSFFLYSKLTVDKSRWQQGNVFSCSVMHEALHNHYTQKSLSLSPGGGGSPSDIQMTQSPSSVSASVGDRVTITCRASQSLLFSVNQKNYLAWYQQKPGKAPKLLIYWASSLQSGVPSRFSGSGSGTDFTLTISSLQPEDFATYYCQHYYSYPWTFGQGTKVEIKGGGGSGGGGSGGGGSGGGGSQVQLVQSGAEVKKPGSSVKVSCKASGYTFSTSWIEWIRQAPGQGLEWMGSIQPGSGSTNYAQKFQGRVTITADTSTSTAYMELSSLRSEDTAVYYCARGDDGSYVRWYFDHWGQGTLVTVSS
notes: also called H-Leu52Gln
In the case of B5, the binding result with Cynomolgus CHOK1SV/CD40 and with human CD40 full-length [4] was “binds” in each case.

B6: CD401136 (Fc fusion)
scFv: DIVMTQSPDSLALSLGERATMNCKSSQSLLFSVNQKNYLAWYQQKPGQPPKLLIYWASTRESGVPDRFSGSGSGTDFTLTISSLQAEDVAVYYCQHYYSYPWTFGQGTKLEIKGGGGSGGGGSGGGGSGGGGSQVQLVQSGAEVKKPGASVKVSCKASGYTFSTSWMEWVRQAPGQGLEWMGEILPGSGSTNYAQKFQGRVTMTRDTSTSTVYMELSSLRSEDTAVYYCARGDDGSYVRWYFDVWGQGTTVTVSS
notes: humanized 1D5 variant; also called CD4001136; not shown: human Fc (scFv-hFc format, scFv at the N-terminus) and its junction
As for B6, the binding result in the experiment with human CD40 full-length [1] is on record as “binds”.

B7: CD401135 (Fc fusion)
scFv: DIVMTQSPDSLALSLGERATMNCKSSQSLLFSVNQKNYLAWYQQKPGQPPKLLIYWASTRESGVPDRFSGSGSGTDFTLTISSLQAEDVAVYYCQHYYSYPWTFGQGTKLEIKGGGGSGGGGSGGGGSGGGGSQVQLVQSGAEVKKPGASVKVSCKASGYTFSTSWIEWVRQAPGQGLEWIGEILPGSGSTNYAQKFQGRATFTADTSTSTAYMELSSLRSEDTAVYYCARGDDGSYVRWYFDVWGQGTTVTVSS
notes: humanized 1D5 variant; also called CD4001135; not shown: human Fc (scFv-hFc format, scFv at the N-terminus) and its junction
B7: the binding result with human CD40 full-length [1] was “binds”.

B8: CD401134 (Fc fusion)
scFv: DIVMTQSPDSLALSLGERATMNCKSSQSLLFSVNQKNYLAWYQQKPGQPPKLLIYWASTRESGVPDRFSGSGSGTDFTLTISSLQAEDVAVYYCQHYYSYPWTFGQGTKLEIKGGGGSGGGGSGGGGSGGGGSQVKLVQSGAEVKKPGASVKVSCKASGYTFSTSWIEWIRQAPGQGLEWIGEILPGSGSTNYAQKFQGRATFTADTSTSTAYMELSSLRSEDTAVYYCARGDDGSYVRWYFDVWGQGTTVTVSS
notes: humanized 1D5 variant; also called CD4001134; not shown: human Fc (scFv-hFc format, scFv at the N-terminus) and its junction
Regarding B8, in the experiment with human CD40 full-length [1], the binding result is listed as “binds”.

B9: CD401137 (Fc fusion)
scFv: QIVMTQSPGTLSLSPGERATMTCKSSQSLLFSVNQKNYLAWYQQKPGQAPRLLIYWASTRESGVPDRFSGSGSGTDFTLTISRLEPEDAATYYCQHYYSYPWTFGAGTKLEIKGGGGSGGGGSGGGGSGGGGSQVQLVQSGAEVKKPGASVKVSCKASGYTFSTSWMEWVRQAPGQGLEWMGEILPGSGSTNYAQKFQGRVTMTRDTSTSTVYMELSSLRSEDTAVYYCARGDDGSYVRWYFDVWGQGTTVTVSS
notes: humanized 1D5 variant; also called CD4001137; not shown: human Fc (scFv-hFc format, scFv at the N-terminus) and its junction
On to B9, for which the binding result with human CD40 full-length [1] is recorded as “binds”.

B10: CD4001065 (PDL_5F9 x hFc x CD40_5B9) (bispecific antibody)
chain: EVQLVESGGGLVKPGGSLRLSCAASGFTFSDYGMAWVRQAPGKGLEWVAFITSLAYIIYYADSVKGRFTISRDNAKNSLYLQMNSLRAEDTAVYYCARNYGSSPYYFDYWGQGTLVTVSSGGGGSGGGGSGGGGSGGGGSDIQMTQSPSSLSASVGDRVTITCRASQDINKFLSWYQQKPGKAPKLLIHYTSSLQPGVPSRFSGSGSGTDFTLTISSLQPEDFATYYCLQYDNLYTFGQGTKLEIKEPKSSDKTHTCPPCPAPPAAAPSVFLFPPKPKDTLMISRTPEVTCVVVDVSHEDPEVKFNWYVDGVEVHNAKTKPREEQYNSTYRVVSVLTVLHQDWLNGKEYKCAVSNKALPAPIEKTISKAKGQPREPQVYTLPPSRDELTKNQVSLTCLVKGFYPSDIAVEWESNGQPENNYKTTPPVLDSDGSFFLYSKLTVDKSRWQQGNVFSCSVMHEALHNHYTQKSLSLSPGGGGSPSDVVMTQTPLSLPVSLGDQASISCRSSQSLVHYNGYTYLHWYLQKPGQSPKLLIYKVSNRFSGVPDRFSGSGSGTDFTLKISRVEAEDLGVYFCSQTTHVPLTFGAGTKLELRGGGGSGGGGSGGGGSGGGGSEVMLVESGGGLVKPGGSLKLSCAASGFTFSSYAMSWVRQTPERRLEWVASISSAGTYIYYPDSVKGRFTISRDNAKNILYLQMNSLRSEDTAMYYCARHGNGYDPLWYFDVWGAGTTVTVSS
notes: ADAPTIR format, anti-PD-L1 scFv on N-terminus, anti-CD40 scFv on C-terminus; also called CD4001065 (5B9)
Consider B10, for which the binding result with Human PD-L1 full-length and with human CD40 full-length [2] was “binds” in each case.
